Data: patent US12454527B2, “Conjugate monomethyl auristatin E to obtain a composition for treatment of prostate cancer” (priority 2019, dated 2025)
“And” between values parts separate entries of the source, which are not always exact repeats. Equal entries are not always repeated. Where two headings read alike, the source gives them in different places. Starred links: 1 amine or outer side, 2 acyl side, 3 side chain; linkers in the order of their positions; H or OH if unused. Non-standard residues stand in square brackets, D forms with d. Residues, ends and D or L forms follow the SMILES beside them. ξ: configuration not given here. *: point of attachment. GluureaLys(ε-3-ClBenzyl) = O=C(O)CC[C@H](NC(=O)N[C@@H](CCCCN(Cc1cccc(Cl)c1)*)C(=O)O)C(=O)O; Dolaproine = CO[C@@H]([C@@H]1CCCN1)[C@@H](C)C(=O)O; Dil = CC[C@H](C)[C@H](NC)[C@@H](CC(=O)O)OC; X1 = O=C(CCCc1cn(CCCN[*:1])nn1)[*:2]; PABC = O=C(OCc1ccc(N[*:1])cc1)[*:2]; X2 = C[C@@H](N*)[C@@H](O)c1ccccc1; Cit = NC(=O)NCCC[C@H](N)C(=O)O; Suc = O=C(CCC(=O)[*:2])[*:1]; NMeV = CN[C@H](C(=O)O)C(C)C; ξV = CC(C)C(N)C(=O)O; Ahx = NCCCCCC(=O)O

Experiment: Pharmacokinetics in plasma of rabbits after a single injection; for T1/2: dose 0.81 mg/kg; for Vd: dose 0.81 mg/kg
Type: in vivo
Text: The pharmacokinetics study for the Conjugate (I) product in plasma of rabbits and rats after a single injection.
The leporids and rodents are the standard targets for preclinical studies of potential drug products as well as determining the pharmacokinetic parameters. The rabbits and rats are recommended as test systems to study pharmacokinetic properties of pharmaceutical products by the regulatory documents (FIG. 7, FIG. 8).
[…] The pharmacokinetic data, determined from this number of test animals, are sufficient to obtain the primary quantitative characteristics of test product distribution and elimination and the calculation of descriptive statistics parameters.
• 1. Conjugate (1) • 2. Solubilizer Pluronic F127—in the amount, five-fold greater than the conjugate amount by weight. • 3, Diluent—Haemodes infusion solution. • Dimethyl sulfoxide—in the amount of 5% of the prepared volume. • Rabbit experiment (see Tables 5, 6), • Rat experiment (see Tables 7, 8).

[1] = male, Soviet Chinchilla, rabbit, plasma, rabbits N=6, read-out: Concentration in blood plasma, Median
[2] = male, Soviet Chinchilla, rabbit, plasma, rabbits N=6, read-out: Concentration in blood plasma, Geometr. mean
[3] = male, Soviet Chinchilla, rabbit, plasma, rabbits N=6, read-out: Concentration in blood plasma, Mean value
[4] = male, Soviet Chinchilla, rabbit, plasma, rabbits, read-out: Concentration in blood plasma (individual animals)

Work on `CC[C@H](C)[C@@H]([C@@H](CC(=O)N1CCC[C@H]1[C@H](OC)[C@@H](C)C(=O)N[C@H](C)[C@@H](O)c1ccccc1)OC)N(C)C(=O)[C@@H](NC(=O)[C@H](C(C)C)N(C)C(=O)OCc1ccc(NC(=O)[C@H](CCCNC(N)=O)NC(=O)C(NC(=O)CCCc2cn(CCCNC(=O)[C@H](Cc3ccc(O)cc3)NC(=O)[C@H](Cc3ccccc3)NC(=O)CCC(=O)NCCCCCC(=O)N(CCCC[C@H](NC(=O)N[C@@H](CCC(=O)O)C(=O)O)C(=O)O)Cc3cccc(Cl)c3)nn2)C(C)C)cc1)C(C)C` (stereo partly shown) [Conjugate (I)] ({GluureaLys(ε-3-ClBenzyl)-Ahx-Suc}-FY[X1][ξV][Cit][PABC][NMeV]V[Dil][Dolaproine]-X2) yielded a level at 1 h [1] of 5890 ng/mL, a level at 1.5 h (male, Soviet Chinchilla, rabbit, plasma, rabbits N=6, 1.50 hour, read-out: Concentration in blood plasma, Mean value) of 5120 ng/mL and a level at 1.5 h (male, Soviet Chinchilla, rabbit, plasma, rabbits N=6, 1.50 hour, read-out: Concentration in blood plasma, Median) of 4970 ng/mL. It also gave a level at 2 h (male, Soviet Chinchilla, rabbit, plasma, rabbits N=6, 2.00 hour, read-out: Concentration in blood plasma, Geometr. mean) of 4570 ng/mL, a level at 2 h (male, Soviet Chinchilla, rabbit, plasma, rabbits N=6, 2.00 hour, read-out: Concentration in blood plasma, Mean value) of 4630 ng/mL and a level at 2 h (male, Soviet Chinchilla, rabbit, plasma, rabbits N=6, 2.00 hour, read-out: Concentration in blood plasma, Median) of 4510 ng/mL. The level at 3 h (male, Soviet Chinchilla, rabbit, plasma, rabbits N=6, 3.00 hour, read-out: Concentration in blood plasma, Geometr. mean) was 3440 ng/mL, the level at 3 h (male, Soviet Chinchilla, rabbit, plasma, rabbits N=6, 3.00 hour, read-out: Concentration in blood plasma, Mean value) was 3520 ng/mL and the level at 3 h (male, Soviet Chinchilla, rabbit, plasma, rabbits N=6, 3.00 hour, read-out: Concentration in blood plasma, Median) was 3650 ng/mL. For the same compound, the level at 4 h [2] was 2430 ng/mL, the level at 4 h [3] was 2520 ng/mL and the level at 4 h [1] was 2540 ng/mL. The level at 6 h [2] was 1510 ng/mL, the level at 6 h [3] was 1540 ng/mL and the level at 6 h [1] was 1620 ng/mL. It also gave a level at 8 h (male, Soviet Chinchilla, rabbit, plasma, rabbits N=6, 8.00 hour, read-out: Concentration in blood plasma, Geometr. mean) of 1180 ng/mL, a level at 8 h (male, Soviet Chinchilla, rabbit, plasma, rabbits N=6, 8.00 hour, read-out: Concentration in blood plasma, Mean value) of 1210 ng/mL and a level at 10 h [2] of 857 ng/mL. The level at 10 h [3] was 878 ng/mL, the level at 10 h [1] was 892 ng/mL and the level at 12 h [2] was 631 ng/mL. It also gave a level at 12 h [3] of 657 ng/mL, a level at 12 h [1] of 558 ng/mL and a C0 (male, Soviet Chinchilla, rabbit, plasma, rabbits N=6, read-out: C0, Geometr. mean) of 10900 ng/mL. For the same compound, the C0 (male, Soviet Chinchilla, rabbit, plasma, rabbits N=6, read-out: C0, Mean value) was 11100 ng/mL, the clearance (male, Soviet Chinchilla, rabbit, plasma, rabbits N=6, read-out: CI, Geometr. mean (converted)) was 0.389 mL/min/kg and the clearance (male, Soviet Chinchilla, rabbit, plasma, rabbits N=6, read-out: CI, Mean value (converted)) was 0.394 mL/min/kg. It also gave a clearance (male, Soviet Chinchilla, rabbit, plasma, rabbits N=6, read-out: CI, Median (converted)) of 0.374 mL/min/kg, a level at 0.08 h (male, Soviet Chinchilla, rabbit, plasma, rabbits, 0.08 hour, read-out: Concentration in blood plasma (individual animals)) of 9580 ng/mL and a level at 0.25 h (male, Soviet Chinchilla, rabbit, plasma, rabbits, 0.25 hour, read-out: Concentration in blood plasma (individual animals)) of 10700 ng/mL. The level at 0.5 h (male, Soviet Chinchilla, rabbit, plasma, rabbits, 0.50 hour, read-out: Concentration in blood plasma (individual animals)) was 7250 ng/mL, the level at 1 h [4] was 5100 ng/mL and the level at 1.5 h (male, Soviet Chinchilla, rabbit, plasma, rabbits, 1.50 hour, read-out: Concentration in blood plasma (individual animals)) was 4850 ng/mL. It also gave a level at 2 h (male, Soviet Chinchilla, rabbit, plasma, rabbits, 2.00 hour, read-out: Concentration in blood plasma (individual animals)) of 3840 ng/mL, a level at 6 h [4] of 1310 ng/mL and a level at 8 h (male, Soviet Chinchilla, rabbit, plasma, rabbits, 8.00 hour, read-out: Concentration in blood plasma (individual animals)) of 1360 ng/mL. The level at 10 h [4] was 859 ng/mL, the “AUCt-∞/AUC0-∞, Geometr. mean” value (rabbits N=6) was 11.364% and the “AUCt-∞/AUC0-∞, Mean value” (rabbits N=6) was 12.690%. The “AUCt-∞/AUC0-∞, Median” value (rabbits N=6) was 13.29%, the “C0, Median” value (rabbits N=6) was 9880 ng/mL and the “Kel, Geometr. mean” value (rabbits N=6) was 0.160 h⁻¹. For the same compound, the “Kel, Mean value” (rabbits N=6) was 0.170 h⁻¹, the “Kel, Median” value (rabbits N=6) was 0.153 h⁻¹ and the “Concentration in blood plasma, Geometr. mean” value (rabbits N=6, 1.50 hour) was 5046 ng/mL. For the same compound, the “Concentration in blood plasma, Median” value (rabbits N=6, 8.00 hour) was 1195 ng/mL, the “Concentration in blood plasma (individual animals)” value (rabbits, 0.08 hour) was 9617 ng/mL and the “Concentration in blood plasma (individual animals)” value (rabbits, 2.00 hour) was 3781 ng/mL. For the same compound, the “Concentration in blood plasma (individual animals)” value (rabbits, 3.00 hour) was 3693 ng/mL, the AUC0-t (rabbits, individual animals) was 39504 ng·h/mL and 21886 ng·h/mL and 33617 ng·h/mL and 28972 ng·h/mL and 28872 ng·h/mL and the “AUC0-∞” value (rabbits, individual animals) was 42004 ng·h/mL and 26025 ng·h/mL and 39814 ng·h/mL and 36928 ng·h/mL and 30768 ng·h/mL. The “AUCt-∞/AUC0-∞” value (rabbits, individual animals) was 11.01% and 5.95% and 15.90% and 15.57% and 21.54% and 6.16%, the C0 (rabbits, individual animals) was 17049 ng/mL and 9815 ng/mL and 9947 ng/mL and 9624 ng/mL and 9582 ng/mL and the CI (rabbits, individual animals) was 0.3827 mL/min/kg and 0.3213 mL/min/kg and 0.5187 mL/min/kg and 0.339 mL/min/kg and 0.3655 mL/min/kg and 0.4388 mL/min/kg. The Kel (rabbits, individual animals) was 0.137 h⁻¹ and 0.234 h⁻¹ and 0.123 h⁻¹ and 0.168 h⁻¹ and 0.099 h⁻¹ and 0.256 h⁻¹, the MRT0-t (rabbits, individual animals) was 3.14 h and 3.29 h and 3.88 h and 3.74 h and 3.46 h and the T1/2 (rabbits, individual animals) was 5.06 h and 2.97 h and 5.63 h and 4.12 h and 7.01 h and 2.70 h. The Vd (rabbits, individual animals) was 0.16766 L/kg and 0.08255 L/kg and 0.2526 L/kg and 0.12101 L/kg and 0.22174 L/kg and 0.1027 L/kg.
